Results taken from patent US12428446B2, “Peptide compound or pharmaceutically acceptable salt thereof” (Eyebio Korea, priority 2019, dated 2025).
*1 amine or outer side, *2 acyl side, *3 side chain or, on linkers, in order; H or OH if unused. Primed or numbered codes have the meaning given here. Where no end group is shown, it is not given here. [ ]: non-standard residue; d: D form. The star is where a group is joined. Pro(trans-4-NH2) = O=C([C@@H]1C[C@@H](N[*:3])CN1[*:1])[*:2]; Pro(cis-4-F) = O=C(O)[C@@H]1C[C@H](F)CN1; Pro(4,4-F2) = O=C(O)[C@@H]1CC(F)(F)CN1; Pro(4,4-Me2) = CC1(C)CN[C@H](C(=O)O)C1; Asu′ = aspartimide (aminosuccinimide); Hyp = O=C(O)[C@@H]1C[C@@H](O)CN1; dHyp = O=C(O)[C@H]1C[C@H](O)CN1; Aib = CC(C)(N)C(=O)O; OiPr = CC(C)O*

Experiment: Evaluation of dissolution stability (content change on storage in dissolved state)
Assay type: physicochemical
Settings: 1 mg/1 ml dissolved state, 40° C. and RH 75%

Substance | Day 1 content (%) | Day 3 content (%) | Day 7 content (%) | Initial content (%)
Hyp-Gly-Gln-Asp (isopropyl ester)-Gly-Leu ([Hyp]GQD(OiPr)GL) [Example 116] | 85.82 | 84.31 | 83.50 | 88.64
4,4-difluoro-Pro-Gly-Gln-Asp-Gly-Leu ([Pro(4,4-F2)]GQDGL) [Example 48] | 84.40 | 76.53 | 53.82 | 92.71
Hyp-Gly-Gln-Asp-Aib ([Hyp]GQD[Aib]) [Example 85] | 92.08 | 88.07 | 75.04 | 92.62
Hyp-Gly-Gln-Asu-Gly-Leu-Ala ([Hyp]GQ[Asu′]GLA) [Example 102] | 90.18 | 85.07 | 81.09 | 92.47
Hyp-Gly-Gln-Asn-Gly-Leu ([Hyp]GQNGL) [Example 81] | 93.01 | 92.10 | 89.51 | 95.87
GQDGLA [Example 29] | 93.74 | 92.16 | 90.82 | 95.19
Hyp-Gly-Gln-Asp-Gly-Val-Ala ([Hyp]GQDGVA) [Example 72] | 95.91 | 90.84 | 82.07 | 97.08
Hyp-Gly-Gln-Glu-Val-Leu-Ala ([Hyp]GQEVLA) [Example 87] | 98.07 | 96.57 | 94.38 | 99.14
Hyp-Gly-Gln-Asp-Val-Leu [Example 34] ([Hyp]GQDVL) | 97.05 | 95.50 | 91.59 | 97.18
Hyp-Gly-Gln-Leu-Val ([Hyp]GQLV) [Example 95] | 98.62 | 98.10 | 97.78 | 98.64
Hyp-Gly-Gln-Asu-Gly ([Hyp]GQ[Asu′]G) [Example 100] | 93.43 | 85.30 | 74.12 | 97.58
QEGLAG [Example 70] | 90.84 | 88.52 | 85.77 | 92.41
Hyp-Gly-Gln-Asp (isopropyl ester)-Gly-Leu-Ala (isopropyl ester) [Example 114] | 75.01 | 56.84 | 32.74 | 84.91
LGLAGPK [Example 20] | 98.77 | 99.69 | 99.66 | 99.35
Hyp-Gly-Gln-Asp-Gly-Leu-Ala ([Hyp]GQDGLA) [Example 12] | 89.90 | 79.04 | 58.75 | 95.31
Hyp-Gly-Gln-Asp-Gly-Leu-Ala-Gly ([Hyp]GQDGLAG) [Example 15] | 91.06 | 81.63 | 70.56 | 91.84
Hyp-Gly-Gln-Ala-Gly ([Hyp]GQAG) [Example 13] | 98.39 | 98.04 | 97.64 | 98.51
Hyp-Gly-Gln-Asp (isopropyl ester)-Gly (isopropyl ester) [Example 110] | 85.18 | 72.44 | 91.84 | 98.00
Hyp-Gly-Gln-Asu-Gly-Leu (isopropyl ester) [Example 111] | 90.71 | 82.07 | 69.37 | 97.48
Hyp-Gly-Gln-Leu-Leu ([Hyp]GQLL) [Example 121] | 99.29 | 99.13 | 99.22 | 99.39
Hyp-Gly-Gln-Asp-Ala ([Hyp]GQDA) [Example 33] | 96.68 | 89.94 | 86.76 | 99.46
Hyp-Gly-Gln-Leu-Leu-Leu ([Hyp]GQLLL) [Example 98] | 99.07 | 98.86 | 98.74 | 99.03
Hyp-Gly-Gln-Ala-Val-Leu ([Hyp]GQAVL) [Example 124] | 99.22 | 99.11 | 98.97 | 99.40

Substance | Day 1 content (%) | Day 3 content (%) | Day 7 content (%) | Initial content (%)
[Hyp]GQDVLA [Example 37] | 98.64 | 97.76 | 93.55 | 98.59
4,4-difluoro-Pro-Gly-Gln-Asp-Gly-Leu-Ala ([Pro(4,4-F2)]GQDGLA) [Example 53] | 87.14 | 76.02 | 62.88 | 94.88
Hyp-Gly-Gln-Glu-Leu-Leu ([Hyp]GQELL) [Example 88] | 98.94 | 98.07 | 97.37 | 99.23
Hyp-Gly-Gln-Asp (isopropyl ester)-Gly-Leu (isopropyl ester) [Example 112] | 92.78 | 86.07 | 80.91 | 95.34
4,4-dimethyl Pro-Gly-Gln-Asp-Gly-Leu-Ala ([Pro(4,4-Me2)]GQDGLA) [Example 57] | 75.20 | 71.82 | 53.88 | 91.95
Hyp-Gly-Gln-Glu-Val-Leu ([Hyp]GQEVL) [Example 89] | 99.07 | 98.81 | 98.43 | 99.57
PGQDGL [Example 77] | 86.66 | 80.88 | 69.44 | 92.01
Hyp-Ala-Gln-Asp-Gly ([Hyp]AQDG) [Example 73] | 89.07 | 82.64 | 75.49 | 92.11
Hyp-Gly-Gln-Asp-Val-Leu [Example 22] ([Hyp]GQDVL) | 85.47 | 83.10 | 82.67 | 88.14
Hyp-Gly-Gln-Asp-Gly-D Leu-Ala ([Hyp]GQDG[dL]A) [Example 65] | 92.97 | 86.96 | 75.40 | 95.64
D Hyp-Gly-Gln-Asp-Gly-Leu-Ala ([dHyp]GQDGLA) [Example 50] | 89.44 | 80.15 | 56.11 | 96.67
cis-4F Pro-Gly-Gln-Asp-Gly-Leu-Ala ([Pro(cis-4-F)]GQDGLA) [Example 51] | 83.35 | 72.55 | 49.31 | 92.07
D Hyp-Gly-Gln-Asp-Gly-Leu ([dHyp]GQDGL) [Example 45] | 86.74 | 69.07 | 56.03 | 94.45
4,4-dimethyl Pro-Gly-Gln-Asp-Gly-Leu ([Pro(4,4-Me2)]GQDGL) [Example 56] | 84.52 | 79.98 | 51.41 | 90.94
Hyp-Gly-Gln-Ala-Leu ([Hyp]GQAL) [Example 120] | 98.87 | 98.73 | 98.44 | 99.07
Hyp-Gly-Gln-Asp-Gly-Leu-D Ala ([Hyp]GQDGL[dA]) [Example 66] | 89.15 | 79.64 | 60.49 | 96.42
Hyp-Gly-Gln-Asp-Leu-Leu ([Hyp]GQDLL) [Example 35] | 97.50 | 95.78 | 93.68 | 98.51
Hyp-Gly-Gln-Glu-Gly-Leu ([Hyp]GQEGL) [Example 68] | 98.25 | 97.51 | 96.93 | 98.71
QDGLAGPK [Example 16] | 47.33 | 16.48 | 10.78 | 80.41
Hyp-Gly-Gln-Ala-Gly-Leu-Ala ([Hyp]GQAGLA) [Example 14] | 96.58 | 96.07 | 95.55 | 97.13
Hyp-Gly-Gln-Leu-Val-Leu ([Hyp]GQLVL) [Example 99] | 99.44 | 99.28 | 99.15 | 99.45
trans-4NH2-Pro-Gly-Gln-Asp-Gly-Leu ([Pro(trans-4-NH2)]GQDGL) [Example 47] | 84.03 | 75.02 | 51.42 | 94.90
trans-4NH2-Pro-Gly-Gln-Asp-Gly-Leu-Ala ([Pro(trans-4-NH2)]GQDGLA) [Example 52] | 86.35 | 74.65 | 54.51 | 96.55
